No end group written: not given here.
Columns and labels:
[1] = biological target: T1, GST-fused human PPARγ-LBD (human); experiment: AlphaScreen or HTRF; LanthaScreen TR-FRET coregulator peptide assay; serial concentrations of rosiglitazone with GST-PPARγ-LBD, terbium-labeled anti-GST antibody and fluorescein-labeled peptide, 4 h; 520 nm/495 nm ratio; conditions: both partners purified
T1 construct: Kit protein, detected through a terbium-labeled anti-GST antibody

[2] = biological target: T1, GST-fused human PPARγ-LBD; experiment: AlphaScreen or HTRF; LanthaScreen TR-FRET coregulator peptide assay; serial concentrations of F12016 with GST-PPARγ-LBD, terbium-labeled anti-GST antibody and fluorescein-labeled peptide, 4 h; coactivator data as percent of the maximum of rosiglitazone; conditions: both partners purified

T1 sequence (P37231 whole entry, the tested form may be a part): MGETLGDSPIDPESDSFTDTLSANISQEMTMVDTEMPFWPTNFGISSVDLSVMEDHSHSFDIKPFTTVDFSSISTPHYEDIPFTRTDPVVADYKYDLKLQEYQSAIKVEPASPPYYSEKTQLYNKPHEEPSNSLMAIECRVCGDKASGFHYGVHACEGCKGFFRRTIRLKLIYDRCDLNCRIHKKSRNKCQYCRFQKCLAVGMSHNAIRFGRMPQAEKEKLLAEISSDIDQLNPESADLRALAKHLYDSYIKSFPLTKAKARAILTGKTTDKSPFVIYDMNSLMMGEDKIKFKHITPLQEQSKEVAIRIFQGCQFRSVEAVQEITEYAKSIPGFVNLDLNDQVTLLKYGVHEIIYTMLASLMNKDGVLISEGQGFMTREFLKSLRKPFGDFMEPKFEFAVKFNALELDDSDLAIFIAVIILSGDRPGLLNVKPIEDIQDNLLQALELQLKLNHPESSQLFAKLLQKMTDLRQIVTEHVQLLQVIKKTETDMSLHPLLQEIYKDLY

efficacy (maximum recruitment, % of rosiglitazone), with rosiglitazone [1] [%] | efficacy (maximum recruitment, % of rosiglitazone), with F12016 [2] [%] | Binder
100 | 17 | NTKNHPMLMNLLKDNPAQD (also: fluorescein label, position not given here)
100 | 25 | VTLTSPLLVNLLQSDISAG (also: fluorescein label, position not given here) [nuclear receptor coactivator 250 (RAP250) peptide, fluorescein-labeled]
100 | 57 | EAEEPSLLKKLLLAPANTQ (also: fluorescein label, position not given here) [PPARγ coactivator 1α (PGC-1α) peptide, fluorescein-labeled]

Source: article PMC4381330, “Identification of a novel selective agonist of PPARγ with no promotion of adipogenesis and less inhibition of osteoblastogenesis” (Scientific Reports, 2015)
